# B1: PNPLA6 (protein, UniProt Q8IY17 1-1375, looked up)
# Patatin-like phospholipase …: MEAPLQTGMMGTSSHGLATNSSGAKVAERDGFQDVLAPGEGSAGRICGAQPVPFVPQVLGVMIGAGVAVVVTAVLILLVVRRLRVPKTPAPDGPRYRFRKRDKVLFYGRKIMRKVSQSTSSLVDTSVSATSRPRMRKKLKMLNIAKKILRIQKETPTLQRKEPPPAVLEADLTEGDLANSHLPSEVLYMLKNVRVLGHFEKPLFLELCRHMVFQRLGQGDYVFRPGQPDASIYVVQDGLLELCLPGPDGKECVVKEVVPGDSVNSLLSILDVITGHQHPQRTVSARAARDSTVLRLPVEAFSAVFTKYPESLVRVVQIIMVRLQRVTFLALHNYLGLTNELFSHEIQPLRLFPSPGLPTRTSPVRGSKRMVSTSATDEPRETPGRPPDPTGAPLPGPTGDPVKPTSLETPSAPLLSRCVSMPGDISGLQGGPRSDFDMAYERGRISVSLQEEASGGSLAAPARTPTQEPREQPAGACEYSYCEDESATGGCPFGPYQGRQTSSIFEAAKQELAKLMRIEDPSLLNSRVLLHHAKAGTIIARQGDQDVSLHFVLWGCLHVYQRMIDKAEDVCLFVAQPGELVGQLAVLTGEPLIFTLRAQRDCTFLRISKSDFYEIMRAQPSVVLSAAHTVAARMSPFVRQMDFAIDWTAVEAGRALYRQGDRSDCTYIVLNGRLRSVIQRGSGKKELVGEYGRGDLIGVVEALTRQPRATTVHAVRDTELAKLPEGTLGHIKRRYPQVVTRLIHLLSQKILGNLQQLQGPFPAGSGLGVPPHSELTNPASNLATVAILPVCAEVPMVAFTLELQHALQAIGPTLLLNSDIIRARLGASALDSIQEFRLSGWLAQQEDAHRIVLYQTDASLTPWTVRCLRQADCILIVGLGDQEPTLGQLEQMLENTAVRALKQLVLLHREEGAGPTRTVEWLNMRSWCSGHLHLRCPRRLFSRRSPAKLHELYEKVFSRRADRHSDFSRLARVLTGNTIALVLGGGGARGCSHIGVLKALEEAGVPVDLVGGTSIGSFIGALYAEERSASRTKQRAREWAKSMTSVLEPVLDLTYPVTSMFTGSAFNRSIHRVFQDKQIEDLWLPYFNVTTDITASAMRVHKDGSLWRYVRASMTLSGYLPPLCDPKDGHLLMDGGYINNLPADIARSMGAKTVIAIDVGSQDETDLSTYGDSLSGWWLLWKRLNPWADKVKVPDMAEIQSRLAYVSCVRQLEVVKSSSYCEYLRPPIDCFKTMDFGKFDQIYDVGYQYGKAVFGGWSRGNVIEKMLTDRRSTDLNESRRADVLAFPSSGFTDLAEIVSRIEPPTSYVSDGCADGEESDCLTEYEEDAGPDCSRDEGGSPEGASPSTASEMEEEKSILRQRRCLPQEPPGSATDA
# B2: MOV10 (protein, UniProt Q9HCE1 1-1003, looked up)
# Helicase MOV-10: MPSKFSCRQLREAGQCFESFLVVRGLDMETDRERLRTIYNRDFKISFGTPAPGFSSMLYGMKIANLAYVTKTRVRFFRLDRWADVRFPEKRRMKLGSDISKHHKSLLAKIFYDRAEYLHGKHGVDVEVQGPHEARDGQLLIRLDLNRKEVLTLRLRNGGTQSVTLTHLFPLCRTPQFAFYNEDQELPCPLGPGECYELHVHCKTSFVGYFPATVLWELLGPGESGSEGAGTFYIARFLAAVAHSPLAAQLKPMTPFKRTRITGNPVVTNRIEEGERPDRAKGYDLELSMALGTYYPPPRLRQLLPMLLQGTSIFTAPKEIAEIKAQLETALKWRNYEVKLRLLLHLEELQMEHDIRHYDLESVPMTWDPVDQNPRLLTLEVPGVTESRPSVLRGDHLFALLSSETHQEDPITYKGFVHKVELDRVKLSFSMSLLSRFVDGLTFKVNFTFNRQPLRVQHRALELTGRWLLWPMLFPVAPRDVPLLPSDVKLKLYDRSLESNPEQLQAMRHIVTGTTRPAPYIIFGPPGTGKTVTLVEAIKQVVKHLPKAHILACAPSNSGADLLCQRLRVHLPSSIYRLLAPSRDIRMVPEDIKPCCNWDAKKGEYVFPAKKKLQEYRVLITTLITAGRLVSAQFPIDHFTHIFIDEAGHCMEPESLVAIAGLMEVKETGDPGGQLVLAGDPRQLGPVLRSPLTQKHGLGYSLLERLLTYNSLYKKGPDGYDPQFITKLLRNYRSHPTILDIPNQLYYEGELQACADVVDRERFCRWAGLPRQGFPIIFHGVMGKDEREGNSPSFFNPEEAATVTSYLKLLLAPSSKKGKARLSPRSVGVISPYRKQVEKIRYCITKLDRELRGLDDIKDLKVGSVEEFQGQERSVILISTVRSSQSFVQLDLDFNLGFLKNPKRFNVAVTRAKALLIIVGNPLLLGHDPDWKVFLEFCKENGGYTGCPFPAKLDLQQGQNLLQGLSKLSPSTSGPHSHDYLPQEREGEGGLSLQVEPEWRNEL
# B3: RRBP1 (protein, UniProt Q9P2E9 1-1410, looked up)
# Ribosome-binding protein 1: MDIYDTQTLGVVVFGGFMVVSAIGIFLVSTFSMKETSYEEALANQRKEMAKTHHQKVEKKKKEKTVEKKGKTKKKEEKPNGKIPDHDPAPNVTVLLREPVRAPAVAVAPTPVQPPIIVAPVATVPAMPQEKLASSPKDKKKKEKKVAKVEPAVSSVVNSIQVLTSKAAILETAPKEVPMVVVPPVGAKGNTPATGTTQGKKAEGTQNQSKKAEGAPNQGRKAEGTPNQGKKTEGTPNQGKKAEGTPNQGKKAEGTPNQGKKAEGAQNQGKKVDTTPNQGKKVEGAPTQGRKAEGAQNQAKKVEGAQNQGKKAEGAQNQGKKGEGAQNQGKKAEGAQNQGKKAEGAQNQGKKAEGAQNQGKKAEGAQNQGKKAEGAQNQGKKAEGAQNQGKKVEGAQNQGKKAEGAQNQGKKAEGAQNQGKKAEGAQNQGKKAEGAQNQGKKAEGAQNQGKKAEGAQNQGKKAEGAQNQGKKVEGAQNQGKKAEGAQNQGKKAEGAQNQGKKAEGAQNQGQKGEGAQNQGKKTEGAQGKKAERSPNQGKKGEGAPIQGKKADSVANQGTKVEGITNQGKKAEGSPSEGKKAEGSPNQGKKADAAANQGKKTESASVQGRNTDVAQSPEAPKQEAPAKKKSGSKKKGEPGPPDADGPLYLPYKTLVSTVGSMVFNEGEAQRLIEILSEKAGIIQDTWHKATQKGDPVAILKRQLEEKEKLLATEQEDAAVAKSKLRELNKEMAAEKAKAAAGEAKVKKQLVAREQEITAVQARMQASYREHVKEVQQLQGKIRTLQEQLENGPNTQLARLQQENSILRDALNQATSQVESKQNAELAKLRQELSKVSKELVEKSEAVRQDEQQRKALEAKAAAFEKQVLQLQASHRESEEALQKRLDEVSRELCHTQSSHASLRADAEKAQEQQQQMAELHSKLQSSEAEVRSKCEELSGLHGQLQEARAENSQLTERIRSIEALLEAGQARDAQDVQASQAEADQQQTRLKELESQVSGLEKEAIELREAVEQQKVKNNDLREKNWKAMEALATAEQACKEKLLSLTQAKEESEKQLCLIEAQTMEALLALLPELSVLAQQNYTEWLQDLKEKGPTLLKHPPAPAEPSSDLASKLREAEETQSTLQAECDQYRSILAETEGMLRDLQKSVEEEEQVWRAKVGAAEEELQKSRVTVKHLEEIVEKLKGELESSDQVREHTSHLEAELEKHMAAASAECQNYAKEVAGLRQLLLESQSQLDAAKSEAQKQSDELALVRQQLSEMKSHVEDGDIAGAPASSPEAPPAEQDPVQLKTQLEWTEAILEDEQTQRQKLTAEFEEAQTSACRLQEELEKLRTAGPLESSETEEASQLKERLEKEKKLTSDLGRAATRLQELLKTTQEQLAREKDTVKKLQEQLEKAEDGSSSKEGTSV
# B4: CAV1 (protein, UniProt Q03135 2-178, looked up)
# Caveolin-1: SGGKYVDSEGHLYTVPIREQGNIYKPNNKAMADELSEKQVYDAHTKEIDLVNRDPKHLNDDVVKIDFEDVIAEPEGTHSFDGIWKASFTTFTVTKYWFYRLLSALFGIPMALIWGIYFAILSFLHIWAVVPCIKSFLIEIQCISRVYSIYVHTVCDPLFEAVGKIFSNVRINLQKEI
# B5: LRRC47 (protein, UniProt Q8N1G4 2-583, looked up)
# Leucine-rich …: AAAAVSESWPELELAERERRRELLLTGPGLEERVRAAGGQLPPRLFTLPLLHYLEVSGCGSLRAPGPGLAQGLPQLHSLVLRRNALGPGLSPELGPLPALRVLDLSGNALEALPPGQGLGPAEPPGLPQLQSLNLSGNRLRELPADLARCAPRLQSLNLTGNCLDSFPAELFRPGALPLLSELAAADNCLRELSPDIAHLASLKTLDLSNNQLSEIPAELADCPKLKEINFRGNKLRDKRLEKMVSGCQTRSILEYLRVGGRGGGKGKGRAEGSEKEESRRKRRERKQRREGGDGEEQDVGDAGRLLLRVLHVSENPVPLTVRVSPEVRDVRPYIVGAVVRGMDLQPGNALKRFLTSQTKLHEDLCEKRTAATLATHELRAVKGPLLYCARPPQDLKIVPLGRKEAKAKELVRQLQLEAEEQRKQKKRQSVSGLHRYLHLLDGNENYPCLVDADGDVISFPPITNSEKTKVKKTTSDLFLEVTSATSLQICKDVMDALILKMAEMKKYTLENKEEGSLSDTEADAVSGQLPDPTTNPSAGKDGPSLLVVEQVRVVDLEGSLKVVYPSKADLATAPPHVTVVR
# B6: DDX3X;DDX3Y (protein, UniProt O00571 2-662, looked up)
# ATP-dependent RNA helicase …: SHVAVENALGLDQQFAGLDLNSSDNQSGGSTASKGRYIPPHLRNREATKGFYDKDSSGWSSSKDKDAYSSFGSRSDSRGKSSFFSDRGSGSRGRFDDRGRSDYDGIGSRGDRSGFGKFERGGNSRWCDKSDEDDWSKPLPPSERLEQELFSGGNTGINFEKYDDIPVEATGNNCPPHIESFSDVEMGEIIMGNIELTRYTRPTPVQKHAIPIIKEKRDLMACAQTGSGKTAAFLLPILSQIYSDGPGEALRAMKENGRYGRRKQYPISLVLAPTRELAVQIYEEARKFSYRSRVRPCVVYGGADIGQQIRDLERGCHLLVATPGRLVDMMERGKIGLDFCKYLVLDEADRMLDMGFEPQIRRIVEQDTMPPKGVRHTMMFSATFPKEIQMLARDFLDEYIFLAVGRVGSTSENITQKVVWVEESDKRSFLLDLLNATGKDSLTLVFVETKKGADSLEDFLYHEGYACTSIHGDRSQRDREEALHQFRSGKSPILVATAVAARGLDISNVKHVINFDLPSDIEEYVHRIGRTGRVGNLGLATSFFNERNINITKDLLDLLVEAKQEVPSWLENMAYEHHYKGSSRGRSKSSRFSGGFGARDYRQSSGASSSSFSSSRASSSRSGGGGHGSSRGFGGGGYGGFYNSDGYGGNYNSQGVDWWGN
# modifications: or DDX3Y
# B7: SSR4 (protein, UniProt P51571 24-173, looked up)
# Translocon-associated protein …: EACLEPQITPSYYTTSDAVISTETVFIVEISLTCKNRVQNMALYADVGGKQFPVTRGQDVGRYQVSWSLDHKSAHAGTYEVRFFDEESYSLLRKAQRNNEDISIIPPLFTVSVDHRGTWNGPWVSTEVLAAAIGLVIYYLAFSAKSHIQA
# Test system: GFP-14-3-3β and its binding proteins
# Test: GFP-14-3-3β co-IP with LC-MS/MS label-free quantification, untreated versus PP1c-treated
# Parameters: species or system human
# Conditions: PP1 vs untreated; LFQ intensities; 3 replicates each
row,"Difference (log2), PP1 vs untreated",Molecule
1,0.7127 log2,B1
2,0.6679 log2,B2
3,0.6577 log2,B3
4,0.6719 log2,B4
5,0.6799 log2,B5
6,0.6546 log2,B6

# Same assay, conditions: log2 difference; pairwise comparison PP1 vs untreated, label-free quantification, 3 replicates each
row,"Difference (log2), PP1 vs untreated",Molecule
1,2.257,B7

# Test system: GFP-14-3-3β
# Test: GFP-14-3-3β co-IP with LC-MS/MS, untreated GFP-14-3-3β versus GFP control (14-3-3 interactome)
# Assay type: binding, human
# Conditions: log2 difference; pairwise comparison untreated vs GFP, label-free quantification, 3 replicates each
row,Molecule,"Difference (log2), untreated vs GFP"
1,B7,0.4182

# Same assay, conditions: untreated vs GFP; LFQ intensities; 3 replicates each
row,Molecule,"Difference (log2), untreated vs GFP"
1,B1,1.692 log2
2,B2,0.6155 log2
3,B3,-0.1928 log2
4,B4,0.3485 log2
5,B5,1.1154 log2
6,B6,0.1796 log2
